Data as given in patent US20050070470A1 (ADMINISTRATORS OF THE TULANE EDUCATIONAL FUND, published 2005).
Bridges are numbered along the chain shown (N, C = ends). Where no end group is shown, it is not given here. [ ]: non-standard residue; d: D form. The star is where a group is joined. DOTA = O=C(O)CN1CCN(CC(=O)O)CCN(CC(=O)*)CCN(CC(=O)O)CC1

Target: somatostatin subtype 2 rat receptor (rat, UniProt P30680 1-369)
Test: cell-based or functional assay

Chain of somatostatin subtype 2 rat receptor (P30680 whole entry): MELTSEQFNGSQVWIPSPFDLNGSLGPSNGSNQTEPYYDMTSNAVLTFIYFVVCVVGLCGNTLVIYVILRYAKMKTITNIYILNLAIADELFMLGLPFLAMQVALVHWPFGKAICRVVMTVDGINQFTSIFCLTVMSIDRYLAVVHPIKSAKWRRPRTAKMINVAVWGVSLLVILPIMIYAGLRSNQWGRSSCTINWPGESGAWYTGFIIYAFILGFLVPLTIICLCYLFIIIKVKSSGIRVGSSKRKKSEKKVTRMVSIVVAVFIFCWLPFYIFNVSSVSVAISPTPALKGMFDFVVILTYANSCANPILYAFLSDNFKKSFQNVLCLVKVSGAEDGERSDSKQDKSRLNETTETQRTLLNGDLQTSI

Binder	IC50 (nM), inhibition of GH release from primary cultures of rat pituitary cells [nM]
Ac-[dS][dS][dS][dS][dS][dS][dS][dS][dS][dS]K[dY][dY]CF[dW]KTCT-NH2 (disulfide 14-19; SMILES CC(=O)N[C@H](CO)C(=O)N[C@H](CO)C(=O)N[C@H](CO)C(=O)N[C@H](CO)C(=O)N[C@H](CO)C(=O)N[C@H](CO)C(=O)N[C@H](CO)C(=O)N[C@H](CO)C(=O)N[C@H](CO)C(=O)N[C@H](CO)C(=O)N[C@@H](CCCCN)C(=O)N[C@H](Cc1ccc(O)cc1)C(=O)N[C@H](Cc1ccc(O)cc1)C(=O)N[C@H]1CSSC[C@@H](C(=O)N[C@H](C(N)=O)[C@@H](C)O)NC(=O)[C@H]([C@@H](C)O)NC(=O)[C@H](CCCCN)NC(=O)[C@@H](Cc2c[nH]c3ccccc23)NC(=O)[C@H](Cc2ccccc2)NC1=O)	0.57
[dS][dS][dS][dS][dS]K[dS][dS]CF[dW]KTCT-NH2 (disulfide 9-14; N-terminus assumed; SMILES C[C@@H](O)[C@H](NC(=O)[C@@H]1CSSC[C@H](NC(=O)[C@@H](CO)NC(=O)[C@@H](CO)NC(=O)[C@H](CCCCN)NC(=O)[C@@H](CO)NC(=O)[C@@H](CO)NC(=O)[C@@H](CO)NC(=O)[C@@H](CO)NC(=O)[C@H](N)CO)C(=O)N[C@@H](Cc2ccccc2)C(=O)N[C@H](Cc2c[nH]c3ccccc23)C(=O)N[C@@H](CCCCN)C(=O)N[C@@H]([C@@H](C)O)C(=O)N1)C(N)=O) [D-Ser-D-Ser-D-Ser-D-Ser-D-Ser-L-Lys-D-Ser-D-Ser-cyclo[L-Cys-L-Phe-D-Trp-L-Lys-L-Thr-L-Cys]-L-Thr-NH2]	3.29
[dS][dS][dS][dS][dS][dS][dS][dS][dS][dS][dS][dS][dS][dS][dS]K[dY][dY]CF[dW]KTCT-NH2 (disulfide 19-24; N-terminus assumed; SMILES C[C@@H](O)[C@H](NC(=O)[C@@H]1CSSC[C@H](NC(=O)[C@@H](Cc2ccc(O)cc2)NC(=O)[C@@H](Cc2ccc(O)cc2)NC(=O)[C@H](CCCCN)NC(=O)[C@@H](CO)NC(=O)[C@@H](CO)NC(=O)[C@@H](CO)NC(=O)[C@@H](CO)NC(=O)[C@@H](CO)NC(=O)[C@@H](CO)NC(=O)[C@@H](CO)NC(=O)[C@@H](CO)NC(=O)[C@@H](CO)NC(=O)[C@@H](CO)NC(=O)[C@@H](CO)NC(=O)[C@@H](CO)NC(=O)[C@@H](CO)NC(=O)[C@@H](CO)NC(=O)[C@H](N)CO)C(=O)N[C@@H](Cc2ccccc2)C(=O)N[C@H](Cc2c[nH]c3ccccc23)C(=O)N[C@@H](CCCCN)C(=O)N[C@@H]([C@@H](C)O)C(=O)N1)C(N)=O)	0.32
[dS][dS][dS][dS][dS][dS][dS][dS][dS][dS]K[dY][dY]CF[dW]KTCT-NH2 (disulfide 14-19; N-terminus assumed; SMILES C[C@@H](O)[C@H](NC(=O)[C@@H]1CSSC[C@H](NC(=O)[C@@H](Cc2ccc(O)cc2)NC(=O)[C@@H](Cc2ccc(O)cc2)NC(=O)[C@H](CCCCN)NC(=O)[C@@H](CO)NC(=O)[C@@H](CO)NC(=O)[C@@H](CO)NC(=O)[C@@H](CO)NC(=O)[C@@H](CO)NC(=O)[C@@H](CO)NC(=O)[C@@H](CO)NC(=O)[C@@H](CO)NC(=O)[C@@H](CO)NC(=O)[C@H](N)CO)C(=O)N[C@@H](Cc2ccccc2)C(=O)N[C@H](Cc2c[nH]c3ccccc23)C(=O)N[C@@H](CCCCN)C(=O)N[C@@H]([C@@H](C)O)C(=O)N1)C(N)=O)	0.12
{DOTA}-[dS][dS][dS][dS][dS][dS][dS][dS][dS][dS]K[dY][dY]CF[dW]KTCT-NH2 (disulfide 14-19; SMILES C[C@@H](O)[C@H](NC(=O)[C@@H]1CSSC[C@H](NC(=O)[C@@H](Cc2ccc(O)cc2)NC(=O)[C@@H](Cc2ccc(O)cc2)NC(=O)[C@H](CCCCN)NC(=O)[C@@H](CO)NC(=O)[C@@H](CO)NC(=O)[C@@H](CO)NC(=O)[C@@H](CO)NC(=O)[C@@H](CO)NC(=O)[C@@H](CO)NC(=O)[C@@H](CO)NC(=O)[C@@H](CO)NC(=O)[C@@H](CO)NC(=O)[C@@H](CO)NC(=O)CN2CCN(CC(=O)O)CCN(CC(=O)O)CCN(CC(=O)O)CC2)C(=O)N[C@@H](Cc2ccccc2)C(=O)N[C@H](Cc2c[nH]c3ccccc23)C(=O)N[C@@H](CCCCN)C(=O)N[C@@H]([C@@H](C)O)C(=O)N1)C(N)=O)	0.71
